Experimental findings from paper PMC3107735 are described below.

For data set [1], the target named is human thrombin (human, UniProt P00734;P00734 328-363;364-622). The data set is described as follows: ITC. In general terms: ITC needs no label: the signal is the heat of the interaction.
Data set [2] addresses alpha-thrombin (bovine, UniProt P00735;P00735 318-366;367-625). Put plainly: ITC.

The Kd is the free concentration of one partner at which half of the binding sites on the other are occupied at equilibrium, for simple one-to-one binding. Low readings indicate a tighter complex, high ones a looser complex.

For GGTTGGTGTGGTTGG (structured_DNA) [thrombin-binding DNA aptamer (15-mer, Bock et al.)], the binding result in data set [1] is on record as “binds”. This molecule gave a Kd in data set [2] of 111 nM.
